Experiment: yeast display, Sf9 membrane polyspecificity reagent, FACS + sequencing; frameworks hold sequencing errors
Method in brief: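 Galactose-induced (36–48 hours) yeast carrying a synthetic nanobody display library were exposed to 10% biotinylated, detergent-solubilized Sf9 membrane reagent at 4 °C for 1 hour. FACS followed streptavidin microbead enrichment, using low and high (top ~1%) gates for expression (anti-HA) and reagent binding (streptavidin). Colony PCR, MiSeq 2 × 250 sequencing and CDR-length filtering followed. Labels for polyreactivity reflect the gate of origin.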

Sequence	polyreactivity (PSR sort gate)
QVQLVESAAGLVQAGGSLRLSCAASGSTFYRYEMGWYRQAPGKERELVATNTSGGSSTYYADSVKGRFTISRDNAKNTVYLQMNSLKPEDTAVYYCAKVYTYSGVNLSSISTPYGYWGQGTQVTVSS	high polyreactivity
QVQLVESGGGLVQAGGSLRLSCAASGRIFRYNAMGWYRQPPGKEREFVARISVITGRTYYADSVKGRFTISRDNAKNTVYLQMNSLKPEDTAVYFCAADAGYNYRYLLRGDYWGQGTQVTVSS	high polyreactivity
QVQLVESGGGLVQAGGSLRLSCAASGRIFTSNAMGWYRQAPGKEREFVAAITKRGGRTYYADSVKGRFTISRDNAKNTVYLQMNSLKPEDTAVYYCAAGATGTSYYGGDYWGQGTQVTVSS	high polyreactivity
QVQLVESGGGLVQAGGSLRLSCAASGFTFWYYAMGWYRQAPGKDRELVASISASGGRTNYADSVKGRFTISRDNAKNTVYLQMNSLKPDDTAVYYCNAASLIAAYGDYYWGQGTQVTVSS	high polyreactivity
QVQLVESGGGLVQAGGSLRLSCAASGRTFGSNAMGWYRQAPGKERELVAAITSSADSTYYADSVKGRFTISRDNAKNTVYLQMNSLKPEDTAVYYCATDQGGYYENDYWGQGTQVTVSS	low polyreactivity
QVQLVESGGGLVQAGGSLRLSCAASGFTFTRYAMGWYIQAPGKERELVAAISRRSGGRTYYADSVKGRFTISRDNAKNTVYLQMNSLKPEDTAVYYCAADYSLRSGYEYWGQGTQVTVSS	high polyreactivity
QVQLVESGGGVVQAGGSLRLSCAASGSTLRDYVMGWYRQAPGKERELVAAITSRVDDTYYADSVKGRFTISRDNAKNNVYLEMNRLKPEDTAVYYCAADYSVTLRIGGYYWFYAFDYWGQGTQVTVSS	low polyreactivity
QVQLVESGGGLVQAGGSLRLSCAASGRILRYNAMGWYRQAPGKERELVATITRSAGRTYSADSVKGRFTISRDNAKNTVYLQMNSLKPEDTAVYYCAKDTDISTLHSKGRAKSRYDYWGQGTQVTVSS	low polyreactivity
QVQLLESGGGLVQAGGSLRLSCAASGSTFDDNAMGWYRQAPGKERELVAGISDGDDSTNYADSVKGRFTISRDNAKNTVYLQMNRLKPEDTAVYYCNARYVRTYGVRFGYDYWGQGTQVTVSS	low polyreactivity
QVQLVESGGGLVQAGGSLRLSCAASGLTFPYNVMGWYRQAPGKERELVASITSVGTTDYADSVKGRFTISRDNAKNTVYLQMNSLNPEDTAVYYCAADVTLFYWWYGKEDYDYWGQGTEVTVSS	low polyreactivity
QVQLVESGGGLVQAGCSLRLSCAASGRIFSYNAMGWYRPAPAKERELVAAISSDGSTYYADSVKGRFTISRDNAKNTVYLQMNSLKPEDTAVYYCAAYPRVNGNILSTGDYWGQGTQVTVSS	low polyreactivity
QVQLVESGGGLVQAGGSLRLSCAASGSIFYVNTIGWYRQAPGKERELVAGITSRGGSTYYADSVKGRFTISRDNAKNTVYLQMNSLKPEDTAVYYCAKRAYGTALYRGYGYWGQGTQVTVSS	low polyreactivity
QVQLVESGGGLVQAGGSLRLSCAASGSTYYKYAMGTDRPAPGKERELVASSSRSGGSTSYADSVKGRFTISRDNAKNTVYLQMNSVKPEDTAVYYCAATWRQHPGSMGYWGQGTQVTVSS	high polyreactivity
QVQLVESGGGLVQAGGSLRLSCAASGINFSYYAMGWYRQAPGKERELVAAIRENGGSTYYADSVKGRFTISRDNAKNTVYLQMNSLKPEDTAVYYCAVDTTYYAGYEYDYWGQGTQVTVSS	low polyreactivity
QDQLVESGGGLVQAGGSLRLRCAASGRTFYMYAMGWYRQAPGKERELDAVISPSGGPTYYADSVKGRFTISRDNAKNPGSLQMNSMKPEDTAVFYCATDYAYSPYRYWTRYDYWGLGTQVTVSS	high polyreactivity
QVQLVESGGGLVQAGGSLRLSCAASGSIFIQYAMGWYSQAPGKERELVAAINSSGGRTYYADSVKGRFTISRDNAKNTVYLQMNSLKPEDTAVYYCAADPGSSFDWGQGTQVTVSS	low polyreactivity
QVQLVESGGGLVQAGCSVRLSCAASGSFFVLNSMGWYRQAPGKERELVAAIDESGGGTYYADSVKGRFTISRDNAKNTVYLQMNSLKPEDTAVYYCAADTLAPRAYDYWGQGTQVTVSS	low polyreactivity
QVQLVESGGGLVQAGGSLRLSCAASGRIFYINAMGWYRQAPGKERELVAAISWSGSSTYYADSVKGRFTISRDNAKNTVYLQMNSLKPEDTAVYYCAAVSYKRVDYWGQGTQVTVSS	high polyreactivity
QDQLVESGGGLVQAGGSLRLSCAASGSIFDIYAMGWYRQAPGKEREMVASIRRRGGSTYYADSVKGRFTISRDNAKNTVYLQMNSLKPEDTAVYDCNARRVWLRTTWTNWPERGYWGQGTQVTVSS	high polyreactivity
QVQLVESGGGLVQAGGSLRLSCAASGSTFRYNARGWYRQAPGKERELVADIRRSGGSTYYADSVKGRFTISRDNAKNTVYLQMNSLKPEDTAVYYCNAAVSRLYYHSYSYRSYYYWGQGTQVTVSS	high polyreactivity
QVQLVESGGGLVQAGGSLRLSCAASGFTFTRYAMGWYRQAPGKERELVAAISRSGTSTYYADSVKGRFTISRDNAKNTVYLQMNSLKPEDTAVYYCAAYFGTTGRYALYDYWGQGTQVTVSS	high polyreactivity
QVQLVESGGGLVQAGGSLRLSCAASGFIFARYAMGWYIQAPGKERELVAAITRRGGSTYYADSVKGRFTISRDNAKNTVYLQMNSLKPEDTAVYYCAAVTSTSWGSVSYRYGVGYDYWGQGTQVTVSS	high polyreactivity

Sequence	polyreactivity (PSR sort gate)
QVQLVESVGGLVQAGGSLRLSCPASGSTFRRYAMGWYRQAPGKERELVAAITRGGITYYADSVKGRFTISRDNAKNTFYLQMNSLKPEDTAVYYCAATTFGPYALYPRYYYWGQGTQVTVSS	high polyreactivity
QVQLVESGGGLVQAGGSLRLSCAASGFTFRRYDMGWYRQAPGKERELVATINRGGSTDYADSVKGRFTISRDNAKNTVYLQMNSLKAEDTAVYYCATRYYSSRTWSEYYYWGQGTKVTVSS	high polyreactivity
QVQLVESGGGLVQAGGSLRLSCAASGSARYAMGWYRQATGNERELVAAISRRGGSTYYADSVKGRFTISRDNATKTVYLHMNSLKPEDTAVYYCAADGRISYDYWGQGTQVTVSS	low polyreactivity
QVQLVESGGGLVQAGGSLRLSCAASGSIFPPYAMGWYRQAPGKERELVATITIRGGSTYYADSVKGRFTISRDNAKNTVYLQMNSLKREDTAVYYCAADYTKYYRRYYYWGQGTQVTVSS	high polyreactivity
QVQLVESGGGLVQAGGSLRLSCAASGFTFRGYAMGWYRQAPGKERELVADITSGGSTYYADSVKGRFTISRDNAKNTVYLQMNSLKPEDTAVYYFATDILYWSDYAYEGYYTLDYYWGQGTQVTVSS	high polyreactivity
QVQLVESGGGLVQAGGSLRLSCAASGSIFFYYAMGWYRQAPGKEREFVAHITSSDASTHYADSVKGRFTISRDNAKNTVYLQMNSLKPEDTAVYYCAADRYPGHRERDYWGQGTQVTVSS	low polyreactivity
QVQLVESGGGLVQAGGSLRLSCAASGSIFVPYAMGWYRQAPGKERELVAAISSGGGRTYYADSVKGRFTISRDNAKNTVYLQMNRLKPEDTAVYYCAARYYIGYGHRTYGYDYWGQGTQVTVSS	high polyreactivity
QVQLVESGGGLVQAGGSLRLSCAGSGSTFRSNAMGWYRQAPGKERELVAAISRSGGRTYYADSVKGRFTISRDNAKNTVYLQMNSLKPEDTAVYYCNTVLKRQRKNEYWGQGTQVTVSS	high polyreactivity
QVQLVESGGGLVQAGGSHRLSCAASGRIFSPYAMGWYRRAPGKERELVAAISYDDGITYYADSVKGRFTISRDNAKNTVYLQMNSLKPEDTAVYYCAADCVTRPAGDYWGQGTQVTVSS	low polyreactivity
QVQLVESGGGLVQAGGSLRLSCAASGFTFWDYAMGWYRQAPGKERELVATISSDGSTNYADSVKGRFTISRDNAKNTVYLQMNSLKPEDTAVYYCAADGYLYFWYPYDYWGQGTQVTVSS	low polyreactivity
QVQLVESGGGLVQAGGSLRLSCAASGFIFPRYVMGWYRQAPGKERELVAAITQGGGSTYYADSVKGRFTISRDNAKNTVYLQMNSLKPEDTAVYYCAAEVWRSYGYWGQGTQVTVSS	low polyreactivity
QVQLVESVGGLVQAGGSLRLSCAASGSTSYDYAMGWNRQAPGKERELVAAISGSSSTTYYADSVKGRFTISRDNAKNTVYLQMNSLKPEDTAVYYCNAVTTSGSGYGYWGQGTQVTVSS	low polyreactivity
QVQLVESGGGLVQAGGSLRLSCAASGFTLSRNAMGWYRQAPGKERELVAAISYSGARTYYADSVKGRFTISRDNAKNTVYLQMNRLKPEDTAVYYCAKVVPYPDYDYWGQGTQVTVSS	high polyreactivity
QVQLLESGGGLVQAGGSLRLSCAASGLIFRGNDMGWYRPAPGKERELVAGINSSGSTNYADSVKGRFTISRDNAKNTVYLQMNSLKPEDTAVYDCAARAIVSFDYWGQGTQVTVSS	low polyreactivity
QVQLVESGGGLVQAGGSLRLSCAASGRIFTWKGMGWYRQAPGKERELVARISSGTRTNYADSVKGRFTISRDNAKNTVYLQMNCLKPEDTAVYYFAAAAKRSDAYHNRRYYWGQGTQVTVSS	high polyreactivity
QVQLVESGGGLVKAGGSLRLSCAAYGFTIVYYAMGWYIQEHGKERELVAAISATGGRTYYADSVKGRFTISRDNAKNTVYLQMNSLKPEDTAVYYCATRRRVLYGYDYWGQGTQVTVSS	high polyreactivity
QVQLVESGGGLVQAGGCLRLSCAASGRTFYRNVMGWYRQAPGKEREWVGAISSRGGSTYYADSVKGRFTISRDNAKNTVYLQMNSLKPEDTAVYYCAAEGTYYGSDYWGQGTQVTVSS	high polyreactivity
QVQLVESGGGLVQAGGSLRLSCAASGFIFFRYAMGWYRQAPGKERELVAAISSSGGSTYYADSVKGRFTISRDNAKNTVYLQMNSLKPEDTAVYYCAAPRYRIFVGLGMDYWGQGTQVTVSS	high polyreactivity
QVQLVESGGGLVQAGGSLRLSCAASGSIFYINAMGWYRQAPGKERELVAAINRGGSTNYADSVKGRFTISRDNAKNTVYLQMNSLKPEDTAVYYCAAYIYKTYRYYYWGQGTQVTVSS	high polyreactivity
QVQLVESGGGLVQAGGSLRLSCAASGRIRRYTMGWYRQAPGKVRELVASISGNGGSTYYADSVKGRFTISRDNAKNTVYLQMNSLKPEDTAVYYCARTKQEYTFGQFYLGDYWGQGTQVTVSS	low polyreactivity
QVQLVESGGGLVQAGASLRVSCAASGISLKYAMVWYRQAPGKERELVASISSRGTSTYYADSVKGRFTISRDNAKNTVYLQMNCLIPEDTAVYYCAARVRWWSPGGYWGQGTQVSVSS	high polyreactivity
